Experimental data from article PMC1974823.

Target: T1, rFimR (Porphyromonas gingivalis (ATCC 33277?)) (UniProt B2RJ77)
T1 sequence: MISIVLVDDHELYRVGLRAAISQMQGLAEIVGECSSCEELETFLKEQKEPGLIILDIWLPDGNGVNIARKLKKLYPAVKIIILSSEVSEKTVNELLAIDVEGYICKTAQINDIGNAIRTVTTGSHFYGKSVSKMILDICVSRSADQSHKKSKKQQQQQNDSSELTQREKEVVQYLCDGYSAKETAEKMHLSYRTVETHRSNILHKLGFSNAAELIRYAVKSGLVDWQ
Assay: EMSA

“TGTAACGGGTTCTGCCTCGTTGTCTTTGTTACAAGCTGTCATAGCAAGAGCAGCAAGTCCCAACAAGAAAAACTTTGTTTTTTTCATCTCGTTTTTGTTTTAAAAGTGAATATTGTTTTCTAAAAATCTAATCTTTTCCCATTTAGAGATTGTCTTGCATATAGCGTCG (double strand) [fimA promoter (176 bp)]” was tested, and the binding was “no binding”.

For “CAGATGGGTTGTTGCTCAAGGAGAACGTCGCCAATACCTAAGCAAGAAAAGAGGAACTGTTCCAGAAAATACTTGGGTTACTCCGGGTTCTGGTTTCGTTCCTACCAGCAGCACTTTCTAT (double strand) [mfa1 coding region (121 bp)]”, the binding was “no binding”.
